Test [1] has as its target Photobacterium profundum α-carbonic anhydrase (Photobacterium profundum SS9). Description: SEC; Hiprep 16/60 Sephacryl S-200 equilibrated with 20 mM Tris pH 7.5 and 150 mM NaCl; dimer to monomers. A general note: In gel filtration, larger molecules generally elute earlier.
For test [2] the target is unchanged. Description: non-reducing SDS-PAGE with protonography; purified PprCA in Laemmli loading buffer without 2-mercaptoethanol, 12% SDS gel, stained with Coomassie blue or by in-gel CO2 hydratase activity (bromothymol blue).

A word on the stoichiometry N: it is a count of units in the complex or per binding partner. “Photobacterium profundum α-carbonic anhydrase (enzyme)”: the stoichiometry N in test [1] and in test [2] was 2 in each case.
